Laboratory results reported in the nanobody polyreactivity screen of Harvey et al. (2022).

assay: yeast display, Sf9 membrane polyspecificity reagent, FACS + sequencing; frameworks hold sequencing errors
In short: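 Sorting gates, low and high (top ~1%), were placed on anti-HA fluorescence to track expression and on streptavidin fluorescence to track reagent binding. A clone's polyreactivity label is taken from the gate it came out of. The reagent was 10% biotinylated, detergent-solubilized Sf9 membrane, applied for 1 hour at 4 °C to galactose-induced yeast display cells.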

Sequence	polyreactivity (PSR sort gate)
QVQLVESGGGLVQAGGSLRLSCAASGRIFGYYAMGWYRQAPGKERELVAAINSGSRTYYADSVKGRFTISRDNAKNTVYLQMNSLKPEDTAVYYCAARVRYPPYRSSDGQRGGYWGQGTQVTVSS	high polyreactivity
QVQLVESGGGLVQAGGSLRLSCAASGRIFGYYAMGWYRQAPGKERELVAAISSSDGSTYYADSVKGRFTISRDNAKNTVYLQMNSLKPEDTAVYYCAASYYNWDVYQLSYRYDYWGQGTQVTVSS	low polyreactivity
QVQLVESGGGLVQAGGSLRLSCAASGRIFGYYTMGWYRQAPGKEREFVASISTTGGSTYYADSVKGRFTISRDNAKNTVYLQMNSLKPEDTAVYYCNVYYWYGSRGSYALGKEYDYWGQGTQVTVSS	high polyreactivity
QVQLVESGGGLVQAGGSLRLSCAASGRIFGYYTMGWYRQAPGKERELVAGITRRGGRTYYADSVKGRFTISRDNAKNTVYLQMNSLKPEDTAVYYCAVRSGVNFYYWGQGTQVTVSS	high polyreactivity
QVQLVESGGGLVQAGGSLRLSCAASGRIFGYYTMGWYRQAPWKESELVARIRRNGVSTYYADSVKGRFTISRDNEKNTVYLQMNSLKPEDTAVYYCAAGYSINFKYDYWGQGTQVTVSS	high polyreactivity
QVQLVESGGGLVQAGGSLRLSCAASGRIFHANAMGWYRQAPGKERELVAGISRNGGRTYYADSVKGRFTISRDNAKNTVYLQMNSLKPEDSAVYYCNALHWHSNELDYYWGQGTQVTVSS	high polyreactivity
QVQLVESGGGLVQAGGSLRLSCAASGRIFHANAMGWYRQAPGKERELVAGISRNGGRTYYADSVKGRFTISRDNAKNTVYLQMNSLKPEDTAVYYCAARVWGSSQYYYWGQGTQVTVSS	high polyreactivity
QVQLVESGGGLVQAGGSLRLSCAASGRIFHFYAMGWYRQAPGKERELVAAITSRTGNTYYADSVKGRFTISRDNAKNTVYLQMNSLKPEDTAVYYCAAKLVNALLHYRNWNHINYWGQGTQVTVSS	low polyreactivity
QVQLVESGGGLVQAGGSLRLSCAASGRIFHFYAMGWYRQAPGKERELVAAITSRTGNTYYADSVKGRYTISRDNAKNTVYLQMNSLKPEDTAVYYCAAKLVNALLHYRNWNHNNYWGQGTQVNVSS	low polyreactivity
QVQLVESGGGLVQAGGSLRLSCAASGRIFHFYAMGWYRQAPGKERELVASITWRGGRTYYADSVKGRFTISRDNAKNTVYLQMNSLKPEDTAVYYCAADFRSGFSSSTTPVQSDWGQGTQVTVSS	low polyreactivity
QVQLVESGGGLVQAGGSLRLSCAASGRIFHGYVMGWYRQAPGKERELVAAINQSGTSTYYADSVKGRFTISRDNAKNTVYLQMNSLKPEDTAVYYCAKDWAYRRHWVGFYYWGQGTQVTVSS	low polyreactivity
QVQLVESGGGLVQAGGSLRLSCAASGRIFHNYAMGWYRQAPGKERELVAAISSSGGRTTYADSVKGRFTISRDYAKNTVYLQMNSLKPEDTAVDYCAKRYPHIGDYWGEGTQVTVSS	high polyreactivity
QVQLVESGGGLVQAGGSLRLSCAASGRIFHPNAMGWYIQAPGKERELDAAISRSGSTYYADSVKGRFTISRDNAKNTVYLQMNSLKPEDTAVYYCATQTWSCFSGTPRIYDYWGQGTQVTVSS	high polyreactivity
QVQLVESGGGLVQAGGSLRLSCAASGRIFHQYAIGWSRPAPGKERELVAAISSGGGSTYYADSVKGRFTISRDNAKNTVYLQMNSLKPEDNAVYYCAAVYDYDRGVNYWGQGTQVTVSS	high polyreactivity
QVQLVESGGGLVQAGGSLRLSCAASGRIFHVYVMGWYRPAPGKERELVAAITWRGGRTYYADSVKGRFTISRDNAKNTVYLQMNSLKPEDTAVYYCKAVAYWYDYQYDYWGQGTQVTVSS	high polyreactivity
QVQLVESGGGLVQAGGSLRLSCAASGRIFHWYAMGWYRQAPGKERELVATANTSYADSVKGRFTISRDNAKNTVYLQMNSLKPEDTAVYYCATVGPRGRSLGDYWGQGTQVTVSS	low polyreactivity

Sequence	polyreactivity (PSR sort gate)
QVQLVESGGGLVQAGGSLRLSCAASGRIFHYNAMGWYRQAPGKERELVARITWTGGSTYYADSVKGRFTISRDNAKNTVYLQMNSLKPEDNAVYYCAAKWSYTKGRYYYWGQGTQVTVSS	high polyreactivity
QVQLVESGGGLVQAGGSLRLSCAASGRIFIGNAMGWYRQAPGKERELVAAISKRGGSTYYADSVKGRFTISRDNAKNTVYLQMNSLKPVDTAVYYCAVDGYVGVADYEYDNWGQGTQVTVSS	low polyreactivity
QVQLVESGGGLVQAGGSLRLSCAASGRIFIGYAMGWYRQAPGKERELVAAITSGGRTYYADSVKGRFTISRDNAKNTVYLQMNSLKPEDTAVYYCYRAAFRYRYDYWGQGTQVTVSS	high polyreactivity
QVQLVESGGGLVQAGGSLRLSCAASGRIFIIYAMGWYRQAPGKERELVAAINRGATTNYADSVKGRFTISRDNAKNTVYLQMNSLKPEDTAVYYCAARGVAKLRRVGYWGQGTQVTVSS	high polyreactivity
QVQLVESGGGLVQAGGSLRLSCAASGRIFIKYAMGWYRQAPGKERELVAAISQSGGSTYYADSVKGRFTISRDNAKNTVYLQMNSLKPEDTAVYYCAVRLYYSIRYYYWGQGTQVTVSS	high polyreactivity
QVQLVESGGGLVQAGGSLRLSCAASGRIFIPNTMGWYIQAPGKERELVAAITWSGSSTYYADSVKGRFTISRDNAKNTVYLQMNSLKPEDTAVYYCAAYPSCYVVVSKGDYWGQGTQVTVSS	high polyreactivity
QVQLVESGGGLVQAGGSLRLSCAASGRIFIPYVMGWYRQAPGKERELVAVITESGGSTYYADSVKGRFTISRDNAKNTVYLQMNSLKPEDTAVYYCATRYGRGARTYHYYYWGQGTQVTVSS	high polyreactivity
QVQLVESGGGLVQAGGSLRLSCAASGRIFIQNTMGWYRQAPGKERELVAAITRSGGRTYYADSVKGRFTISRDNAKNTVYLQMNSLKPEDTAVYYCAAVARTVPSYSYNYWGQGTQVTVSS	high polyreactivity
QVQLVESGGGLVQAGGSLRLSCAASGRIFIRNAMGWYRPAPGKERELVAAITQSGGSTYYADSVKGRFTISRDNAKNTVYLQMNSLKPEDTAVYYCAADGDNPYLHEEDYWGQGTQVTVSS	high polyreactivity
QVQLVESGGGLVQAGGSLRLSCAASGRIFIRYAMGWYRQAPGKERELVAAISRSGGSTYYADSVKGRITISRDNAKNTVYLQMNSLKPEDTAVYYCAAVSSSTWLEYYYWGQGTQVTVSS	high polyreactivity
QVQLVESGGGLVQAGGSLRLSCAASGRIFIRYAMGWYRQAPGKERELVAVITTGGSTNADSVKGRFTISRDNAKNTVYLQMNSVKPEDTAVYYCNAKVRVYTRGYFRYWYDYWGQGTQVTVSS	high polyreactivity
QVQLVESGGGLVQAGGSLRLSCAASGRIFITNAMGWYRQAPGKERELVAAIRRRGGNTYYADSVKGRFTISRDNANNTVYLQINSLKPEDTAVYYCAVYPRPYKYNYWGQGTQVTVSS	high polyreactivity
QVQLVESGGGLVQAGGSLRLSCAASGRIFITNTMGWYRQAPGKERELVAAISRTGGSTYYADSVKGRFTISRDNAKNTVYLQMNSLKPEDTAVYYCNADWYGQLWWGVDYWGQGTQVTVSS	high polyreactivity
QVQLVESGGGLVQAGGSLRLSCAASGRIFIVYVMVWYRQAPGKESELVAAITGRGGSTYYADSVKGRFTISHDNAKNTVYLQMNSLKPEDTAVYYCDDYDGGGYDSWGQGNQVTVSS	low polyreactivity
QVQLVESGGGLVQAGGSLRLSCAASGRIFIWYGMGWYRQAPGKERELVADISSTGSTNYADSVKGRFTISRDNAKNTVYLQMNSLKPEDTAVYYCAADPETPYYTTYDYDYWGQGTQVTVSS	low polyreactivity
